According to patent US20090149389A1 (PURDUE RESEARCH FOUNDATION, published 2009):
Like-named read-outs stand apart in the source and are kept apart here.

Tests used:
Experiment in all cases: cell-based or functional assay
EGFR (h) = EGFR (h) (human (h), UniProt P00533 696-1210, limits assumed)
EphA2 (h) [1] = molecular target: T1, EphA2 (h) (human (h), UniProt P29317 591-976, limits assumed)
T1 sequence (looked up): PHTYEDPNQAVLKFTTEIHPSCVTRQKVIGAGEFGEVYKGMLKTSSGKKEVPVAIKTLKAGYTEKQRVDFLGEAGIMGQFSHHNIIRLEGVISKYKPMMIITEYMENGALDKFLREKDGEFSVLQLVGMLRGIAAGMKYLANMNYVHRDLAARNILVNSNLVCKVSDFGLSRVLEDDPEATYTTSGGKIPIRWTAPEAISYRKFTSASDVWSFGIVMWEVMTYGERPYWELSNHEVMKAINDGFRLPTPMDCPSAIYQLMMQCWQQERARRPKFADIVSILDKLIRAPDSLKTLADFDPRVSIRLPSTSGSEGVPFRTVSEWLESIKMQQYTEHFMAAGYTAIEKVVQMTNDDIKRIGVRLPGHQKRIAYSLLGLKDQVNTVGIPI

SAPK2 a (h) [2] = molecular target: T2, SAPK2 a (h) (human (h), UniProt Q16539 1-360)
Abl (h) = Abl (h) (human (h), UniProt P00519 27-1130, limits assumed)
MKK4 (m) = molecular target: T3, MKK4 (m) (mouse (m), UniProt P47809 35-397, limits assumed)
T3 sequence (looked up): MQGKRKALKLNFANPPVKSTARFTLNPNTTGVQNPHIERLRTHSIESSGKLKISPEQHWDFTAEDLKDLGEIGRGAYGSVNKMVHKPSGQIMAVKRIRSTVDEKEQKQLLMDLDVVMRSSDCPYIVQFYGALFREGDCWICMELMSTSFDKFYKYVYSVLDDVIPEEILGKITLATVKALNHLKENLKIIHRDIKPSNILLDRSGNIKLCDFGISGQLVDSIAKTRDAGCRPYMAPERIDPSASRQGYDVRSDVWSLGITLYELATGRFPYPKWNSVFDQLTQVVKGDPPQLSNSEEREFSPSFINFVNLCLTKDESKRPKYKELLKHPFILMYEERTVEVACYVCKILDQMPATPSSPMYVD

IGF-IR (h) = IGF-IR (h) (human (h), UniProt P08069 959-1367, limits assumed)
AMPK (r) = AMPK (r) (rat (r), UniProt Q09137 1-552, limits assumed)
GSK3β (h) = GSK3β (h) (human (h), UniProt P49841 1-420)
CK2 (h) = CK2 (h) (human (h), UniProt P68400 1-391)
Lck (h) = Lck (h) (human (h), UniProt P06239 1-509)
IRAK4 (h) = molecular target: T4, IRAK4 (h) (human (h), UniProt Q9NWZ3 1-460, limits assumed)
T4 sequence (looked up): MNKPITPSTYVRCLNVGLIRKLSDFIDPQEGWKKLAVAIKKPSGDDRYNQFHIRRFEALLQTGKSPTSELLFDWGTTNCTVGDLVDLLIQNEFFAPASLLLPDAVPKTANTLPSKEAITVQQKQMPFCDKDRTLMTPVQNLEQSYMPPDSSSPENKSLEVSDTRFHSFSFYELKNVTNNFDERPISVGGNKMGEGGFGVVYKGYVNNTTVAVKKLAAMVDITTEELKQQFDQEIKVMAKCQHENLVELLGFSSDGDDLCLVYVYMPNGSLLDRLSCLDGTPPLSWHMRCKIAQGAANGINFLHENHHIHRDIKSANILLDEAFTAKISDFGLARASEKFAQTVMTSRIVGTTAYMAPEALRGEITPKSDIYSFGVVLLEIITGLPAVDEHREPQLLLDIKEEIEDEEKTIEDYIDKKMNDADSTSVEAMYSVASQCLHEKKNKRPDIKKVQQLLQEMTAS

TrkA (h) = TrkA (h) (human (h), UniProt P04629 441-796, limits assumed)
MSK1 (h) = MSK1 (h) (human (h), UniProt O75582 1-802)
MKK6 (h) = molecular target: T5, MKK6 (h) (human (h), UniProt P52564 1-334, limits assumed)
T5 sequence (looked up): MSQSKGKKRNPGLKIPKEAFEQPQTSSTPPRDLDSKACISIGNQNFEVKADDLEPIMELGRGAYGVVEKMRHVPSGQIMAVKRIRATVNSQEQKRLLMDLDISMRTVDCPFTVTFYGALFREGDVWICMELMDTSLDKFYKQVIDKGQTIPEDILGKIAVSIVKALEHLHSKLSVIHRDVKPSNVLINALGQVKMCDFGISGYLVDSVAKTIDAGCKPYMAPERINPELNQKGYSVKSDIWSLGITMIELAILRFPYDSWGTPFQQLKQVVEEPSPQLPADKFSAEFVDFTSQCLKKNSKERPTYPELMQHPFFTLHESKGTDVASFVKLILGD

Syk (h) = Syk (h) (human (h), UniProt P43405 1-635)
ASK1 (h) = ASK1 (h) (human (h), UniProt Q99683 649-946, limits assumed)
MSK2 (h) = MSK2 (h) (human (h), UniProt O75676 1-772, limits assumed)
EphA2 (h) [3] = molecular target: T1, EphA2 (h); remark: listed apart in the source
SAPK2 a (h) [4] = molecular target: T2, SAPK2 a (h); remark: listed apart in the source
JNK1α1 (h) = JNK1α1 (h) (human (h), UniProt P45983-2 1-384)
MLCK (h) = MLCK (h) (human (h))
L1MK1 (h) = L1MK1 (h) (human (h), UniProt P53667 285-638, limits assumed)
L1MK1 (h), sequence (P53667 285-638 limits assumed): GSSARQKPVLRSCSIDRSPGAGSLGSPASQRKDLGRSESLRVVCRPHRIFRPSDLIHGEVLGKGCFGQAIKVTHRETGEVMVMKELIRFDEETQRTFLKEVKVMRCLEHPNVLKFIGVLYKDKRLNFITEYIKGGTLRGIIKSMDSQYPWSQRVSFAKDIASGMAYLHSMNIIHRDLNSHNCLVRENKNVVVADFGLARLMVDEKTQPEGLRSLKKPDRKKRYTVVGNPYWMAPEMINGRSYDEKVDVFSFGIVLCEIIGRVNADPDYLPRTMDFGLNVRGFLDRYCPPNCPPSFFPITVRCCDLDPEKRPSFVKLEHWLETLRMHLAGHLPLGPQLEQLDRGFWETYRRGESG

T2 sequence (Q16539 whole entry): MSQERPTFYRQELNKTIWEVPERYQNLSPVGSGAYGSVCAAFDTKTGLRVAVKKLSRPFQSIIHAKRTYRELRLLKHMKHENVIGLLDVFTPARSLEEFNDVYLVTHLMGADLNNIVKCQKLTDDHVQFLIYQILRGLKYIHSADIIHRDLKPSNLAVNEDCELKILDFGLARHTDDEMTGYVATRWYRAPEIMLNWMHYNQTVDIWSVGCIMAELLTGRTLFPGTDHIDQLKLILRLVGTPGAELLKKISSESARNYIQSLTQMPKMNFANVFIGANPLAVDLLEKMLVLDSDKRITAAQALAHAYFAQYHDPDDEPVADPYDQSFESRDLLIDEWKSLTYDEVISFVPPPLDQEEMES
GSK3β (h), sequence (P49841 whole entry): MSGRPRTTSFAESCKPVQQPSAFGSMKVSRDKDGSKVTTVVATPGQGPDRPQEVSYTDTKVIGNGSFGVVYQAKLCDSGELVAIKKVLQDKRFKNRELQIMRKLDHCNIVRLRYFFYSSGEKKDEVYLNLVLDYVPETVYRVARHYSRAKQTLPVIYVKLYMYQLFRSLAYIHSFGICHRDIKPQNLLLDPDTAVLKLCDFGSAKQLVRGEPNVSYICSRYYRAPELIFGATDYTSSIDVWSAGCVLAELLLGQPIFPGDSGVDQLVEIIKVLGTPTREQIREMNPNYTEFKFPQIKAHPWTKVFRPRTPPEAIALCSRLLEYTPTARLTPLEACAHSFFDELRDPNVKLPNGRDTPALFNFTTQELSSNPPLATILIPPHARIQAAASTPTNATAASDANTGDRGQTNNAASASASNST
IGF-IR (h), sequence (P08069 959-1367 limits assumed): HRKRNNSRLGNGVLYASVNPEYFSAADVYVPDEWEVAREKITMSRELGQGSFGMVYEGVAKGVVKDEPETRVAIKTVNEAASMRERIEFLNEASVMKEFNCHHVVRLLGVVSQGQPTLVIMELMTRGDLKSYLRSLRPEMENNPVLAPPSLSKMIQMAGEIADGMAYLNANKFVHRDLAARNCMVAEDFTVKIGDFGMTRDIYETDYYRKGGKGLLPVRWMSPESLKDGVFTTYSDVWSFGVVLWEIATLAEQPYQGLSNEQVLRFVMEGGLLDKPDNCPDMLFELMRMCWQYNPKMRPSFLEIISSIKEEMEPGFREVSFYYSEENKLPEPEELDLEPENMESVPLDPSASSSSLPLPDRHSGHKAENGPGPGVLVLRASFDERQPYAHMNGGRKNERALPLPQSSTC
Abl (h), sequence (P00519 27-1130 limits assumed): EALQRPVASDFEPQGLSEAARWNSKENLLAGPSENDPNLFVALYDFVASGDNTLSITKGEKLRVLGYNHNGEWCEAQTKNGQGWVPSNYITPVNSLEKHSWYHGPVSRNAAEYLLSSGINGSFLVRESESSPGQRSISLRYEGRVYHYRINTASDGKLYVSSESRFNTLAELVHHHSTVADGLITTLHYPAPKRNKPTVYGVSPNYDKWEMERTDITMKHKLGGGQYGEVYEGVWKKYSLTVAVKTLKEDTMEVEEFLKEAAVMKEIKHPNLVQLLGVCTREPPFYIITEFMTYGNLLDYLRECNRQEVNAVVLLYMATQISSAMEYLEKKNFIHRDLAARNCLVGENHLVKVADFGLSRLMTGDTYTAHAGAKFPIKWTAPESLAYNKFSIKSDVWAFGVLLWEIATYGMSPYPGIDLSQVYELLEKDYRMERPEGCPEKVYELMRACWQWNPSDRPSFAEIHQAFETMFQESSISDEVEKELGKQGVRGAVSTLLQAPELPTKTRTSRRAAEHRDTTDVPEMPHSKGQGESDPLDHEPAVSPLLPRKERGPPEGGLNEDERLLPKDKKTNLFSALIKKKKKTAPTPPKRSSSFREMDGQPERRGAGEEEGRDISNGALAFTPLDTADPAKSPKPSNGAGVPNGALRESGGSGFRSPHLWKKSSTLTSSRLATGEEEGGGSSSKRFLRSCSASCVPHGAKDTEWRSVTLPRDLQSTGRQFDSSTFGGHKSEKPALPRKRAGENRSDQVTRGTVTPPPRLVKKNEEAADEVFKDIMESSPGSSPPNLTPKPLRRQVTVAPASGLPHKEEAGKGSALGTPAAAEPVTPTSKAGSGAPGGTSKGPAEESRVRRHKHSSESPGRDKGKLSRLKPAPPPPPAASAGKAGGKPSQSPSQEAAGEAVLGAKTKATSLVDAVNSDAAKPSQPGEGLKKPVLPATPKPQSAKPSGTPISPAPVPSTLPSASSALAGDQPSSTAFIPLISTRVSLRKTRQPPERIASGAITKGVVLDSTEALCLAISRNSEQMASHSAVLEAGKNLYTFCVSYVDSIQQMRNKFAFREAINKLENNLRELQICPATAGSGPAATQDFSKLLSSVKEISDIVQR
Lck (h), sequence (P06239 whole entry): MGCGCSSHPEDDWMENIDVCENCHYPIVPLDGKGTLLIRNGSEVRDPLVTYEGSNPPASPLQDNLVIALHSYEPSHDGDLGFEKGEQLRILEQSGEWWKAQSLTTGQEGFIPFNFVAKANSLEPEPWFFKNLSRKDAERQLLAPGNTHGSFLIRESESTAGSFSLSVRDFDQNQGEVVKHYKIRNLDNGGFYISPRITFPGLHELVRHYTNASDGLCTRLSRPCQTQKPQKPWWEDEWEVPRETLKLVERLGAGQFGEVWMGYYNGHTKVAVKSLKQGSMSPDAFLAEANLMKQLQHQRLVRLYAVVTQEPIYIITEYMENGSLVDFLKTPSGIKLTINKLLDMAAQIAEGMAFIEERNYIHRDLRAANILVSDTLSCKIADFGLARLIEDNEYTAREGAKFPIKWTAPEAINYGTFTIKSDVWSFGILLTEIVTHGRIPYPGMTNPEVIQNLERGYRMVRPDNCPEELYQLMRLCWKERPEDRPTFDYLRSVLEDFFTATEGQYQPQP
AMPK (r), sequence (Q09137 whole entry): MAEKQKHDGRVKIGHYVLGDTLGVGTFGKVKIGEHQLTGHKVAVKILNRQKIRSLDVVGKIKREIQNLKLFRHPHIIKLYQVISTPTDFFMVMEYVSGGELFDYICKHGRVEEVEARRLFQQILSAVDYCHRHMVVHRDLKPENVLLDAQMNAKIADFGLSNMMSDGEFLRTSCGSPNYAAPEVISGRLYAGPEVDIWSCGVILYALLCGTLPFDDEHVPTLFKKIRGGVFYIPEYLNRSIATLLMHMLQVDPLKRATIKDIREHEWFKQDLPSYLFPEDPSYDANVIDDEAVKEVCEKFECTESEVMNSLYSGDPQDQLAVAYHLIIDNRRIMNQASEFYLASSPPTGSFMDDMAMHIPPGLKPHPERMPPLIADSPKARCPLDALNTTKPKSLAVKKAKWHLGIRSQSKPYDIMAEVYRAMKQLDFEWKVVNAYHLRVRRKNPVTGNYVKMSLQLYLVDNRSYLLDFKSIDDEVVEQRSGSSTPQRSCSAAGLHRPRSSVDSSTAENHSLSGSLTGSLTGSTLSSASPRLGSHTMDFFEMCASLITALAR
MSK1 (h), sequence (O75582 whole entry): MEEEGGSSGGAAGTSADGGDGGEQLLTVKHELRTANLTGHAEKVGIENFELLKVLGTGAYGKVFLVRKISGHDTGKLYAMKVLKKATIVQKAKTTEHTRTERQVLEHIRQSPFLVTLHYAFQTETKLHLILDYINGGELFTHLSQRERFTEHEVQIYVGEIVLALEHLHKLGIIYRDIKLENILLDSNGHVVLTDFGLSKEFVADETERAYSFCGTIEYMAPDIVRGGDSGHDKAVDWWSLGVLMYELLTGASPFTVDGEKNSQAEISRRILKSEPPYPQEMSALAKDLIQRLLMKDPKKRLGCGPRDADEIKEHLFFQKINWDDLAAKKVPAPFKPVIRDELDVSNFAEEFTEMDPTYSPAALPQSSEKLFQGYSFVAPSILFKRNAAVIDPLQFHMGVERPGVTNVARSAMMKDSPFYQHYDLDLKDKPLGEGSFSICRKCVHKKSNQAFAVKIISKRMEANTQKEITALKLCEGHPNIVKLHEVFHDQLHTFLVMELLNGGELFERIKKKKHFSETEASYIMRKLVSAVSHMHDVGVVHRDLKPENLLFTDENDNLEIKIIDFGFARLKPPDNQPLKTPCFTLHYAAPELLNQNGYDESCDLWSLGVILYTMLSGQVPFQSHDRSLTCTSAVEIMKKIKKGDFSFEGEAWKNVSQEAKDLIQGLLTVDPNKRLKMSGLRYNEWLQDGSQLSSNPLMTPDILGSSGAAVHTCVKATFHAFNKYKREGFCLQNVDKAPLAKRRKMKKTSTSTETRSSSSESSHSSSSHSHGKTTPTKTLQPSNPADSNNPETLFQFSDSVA
CK2 (h), sequence (P68400 whole entry): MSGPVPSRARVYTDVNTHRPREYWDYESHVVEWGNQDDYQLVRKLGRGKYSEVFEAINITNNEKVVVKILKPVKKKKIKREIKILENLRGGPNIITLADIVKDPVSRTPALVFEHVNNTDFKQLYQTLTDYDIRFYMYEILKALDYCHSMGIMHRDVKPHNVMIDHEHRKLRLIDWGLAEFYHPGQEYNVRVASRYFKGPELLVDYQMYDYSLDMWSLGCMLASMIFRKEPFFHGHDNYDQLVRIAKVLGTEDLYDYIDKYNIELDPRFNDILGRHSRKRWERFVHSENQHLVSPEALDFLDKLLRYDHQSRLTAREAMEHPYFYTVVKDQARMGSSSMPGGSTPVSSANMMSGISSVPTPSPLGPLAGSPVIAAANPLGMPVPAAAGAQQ

**Q.** What does the source list for KAFAKLAARLYRKALARQLGVAA?
**A.** Profile-1 @ = 100 µm (kinase profiler assay) (EGFR (h)): 16; Profile-1 @ = 100 µm (kinase profiler assay) (EphA2 (h) [1]): 22; Profile-1 @ = 100 µm (kinase profiler assay) (SAPK2 a (h) [2]): 59

**Q.** With FAKLAARLYRKALARQLGVAA as the binder, how does the “Profile-1 @ = 100 µm (kinase profiler assay)” value (from here on “Profile-1 @ = 100 µm”) (Abl (h)) read?
**A.** 41

**Q.** And the “Profile-1 @ = 100 µm” value (MKK4 (m))?
**A.** 90

**Q.** What about the “Profile-1 @ = 100 µm” value (IGF-IR (h)) of the same binder?
**A.** 69

**Q.** And the “Profile-1 @ = 100 µm” value (AMPK (r))?
**A.** 101

**Q.** What about the “Profile-1 @ = 100 µm” value (GSK3β (h)) of the same binder?
**A.** 188

**Q.** And the “Profile-1 @ = 100 µm” value (CK2 (h))?
**A.** 80

**Q.** What about the “Profile-1 @ = 100 µm” value (Lck (h)) of the same binder?
**A.** 493

**Q.** And the “Profile-1 @ = 100 µm” value (IRAK4 (h))?
**A.** 13

**Q.** What about the “Profile-1 @ = 100 µm” value (TrkA (h)) of the same binder?
**A.** 17

**Q.** What about the “Profile-1 @ = 100 µm” value (MSK1 (h)) of the same binder?
**A.** 11

**Q.** What about the “Profile-1 @ = 100 µm” value (MKK6 (h)) of the same binder?
**A.** 42

**Q.** And the “Profile-1 @ = 100 µm” value (Syk (h))?
**A.** 38

**Q.** What about the “Profile-1 @ = 100 µm” value (ASK1 (h)) of the same binder?
**A.** 53

**Q.** What about the “Profile-1 @ = 100 µm” value (MSK2 (h)) of the same binder?
**A.** 24

**Q.** What about the “Profile-1 @ = 100 µm” value (EphA2 (h) [3]) of the same binder?
**A.** 32

**Q.** And the “Profile-1 @ = 100 µm” value (SAPK2 a (h) [4])?
**A.** 30

**Q.** And the “Profile-1 @ = 100 µm” value (JNK1α1 (h))?
**A.** 91

**Q.** And the “Profile-1 @ = 100 µm” value (MLCK (h))?
**A.** 1

**Q.** What about the “Profile-1 @ = 100 µm” value (L1MK1 (h)) of the same binder?
**A.** 92
